One assay concerns the target T1, LEDESYEIYV (human, not fully specified (N-terminus)).
T1 construct: synthetic peptide
T1 peptide: LEDESYEIYV
The assay can be described thus: KinExA, alkaline-purified IgG, peptide. The procedure:
(§1) The mixture samples were incubated at a room temperature until the antigen-antibody reaction reached equilibrium. After the reaction reached equilibrium, the percentage of free anti-IL-33 antibody in each sample was analyzed using KinExA3200. The values of Kd were calculated by fitting the plot of percentages of anti-IL-33 antibody not bound to the human IL-33 protein (vertical axis) and concentrations of antigen (horizontal axis) to a theoretical formula, using a KinExA data analysis program (KinExA Pro Software v3.5.3, available from Sapidyne Instruments, Inc.). Beads for capturing the anti-IL-33 antibody were prepared by suspending 50 mg of Azlactone beads (Sapidyne) in 1 mL of coating solution (10 μg/mL human IL-33 protein (ILC0701, available from ATGen Co. Ltd), 50 mM sodium carbonate at pH of 9.6) and incubating the solution at a room temperature for one hour. The antibody for detection used was anti-human F(ab)′2-DyLight649 (Jackson, 309-495-006).
(§2) The anti-IL-33 monoclonal antibodies A10-1C04 and A25-3H04 bound to the epitope PEP14 as described in the Example 1. […] These peptides were synthesized, and the affinity with the alkali-purified antibodies was calculated as Kd by the KinExA experiment as in Example 9 (Table 14).
(A kinetic exclusion assay measures how much of one partner remains free in solution.)

A further assay has as its target T2, EDESYEIYV (human, not fully specified (N-terminus)).
T2 construct: synthetic peptide
T2 peptide: EDESYEIYV
Nature of the assay: KinExA, alkaline-purified IgG, peptide. The method, then:
as §1, §2

For assay [1], the target named is T3, DQSITFALEDESYEIYVEDL (PEP14) (human, not fully specified).
T3 peptide: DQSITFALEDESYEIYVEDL
The assay can be described thus: KinExA, alkaline-purified IgG, peptide. The method, then:
as §1, §2

Assay [2] has as its target T4, recombinant human IL-33 protein (residues 112 to 270) (ILC0701, ATGen Co. Ltd) (human, UniProt O95760 112-270).
T4 construct: bought protein
T4 sequence: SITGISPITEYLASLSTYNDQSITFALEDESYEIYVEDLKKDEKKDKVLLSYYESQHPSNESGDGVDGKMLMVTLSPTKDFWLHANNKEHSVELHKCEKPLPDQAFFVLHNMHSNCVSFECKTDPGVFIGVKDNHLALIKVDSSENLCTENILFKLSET
The assay can be described thus: KinExA in PBS, alkaline-purified IgG. The method, then: as §1, with “Mixture samples of a test antibody and a human IL-33 protein (ILC0701, available from ATGen Co. Ltd) were prepared. The human IL-33 protein was titrated to a constant concentration of test antibody (final concentration: several tens of pM to several hundreds of pM) over a wide concentration range of the human IL-33 protein (so that it covered the concentrations of the human IL-33 protein resulting from 12-step serial doubling dilutions, i.e. one- to 2048-fold, with the upper limit of final concentration set to several nM to several tens of nM). The mixture” for “The mixture”

The target of assay [3] is T5, full-length human IL-33 protein (human, UniProt O95760 1-270).
T5 construct: also called Human IL-33 (Full-Length)
T5 sequence: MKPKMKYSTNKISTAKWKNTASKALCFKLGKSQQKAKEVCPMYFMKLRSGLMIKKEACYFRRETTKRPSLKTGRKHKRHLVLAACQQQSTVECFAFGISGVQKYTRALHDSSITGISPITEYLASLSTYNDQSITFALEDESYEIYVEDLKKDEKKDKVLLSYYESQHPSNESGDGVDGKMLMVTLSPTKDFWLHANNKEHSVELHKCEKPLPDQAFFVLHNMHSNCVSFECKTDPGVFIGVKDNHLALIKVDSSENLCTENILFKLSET
The assay can be described thus: KinExA in PBS, alkaline-purified IgG. The method, then: as §1, with “Mixture samples of a test antibody and a human IL-33 protein (ILC0701, available from ATGen Co. Ltd) were prepared. The human IL-33 protein was titrated to a constant concentration of test antibody (final concentration: several tens of pM to several hundreds of pM) over a wide concentration range of the human IL-33 protein (so that it covered the concentrations of the human IL-33 protein resulting from 12-step serial doubling dilutions, i.e. one- to 2048-fold, with the upper limit of final concentration set to several nM to several tens of nM). The mixture” for “The mixture”

For assay [4], the target named is T6, 6His-AviTag-linked cynomolgus monkey IL-33 (residues 112 to 269) (cynomolgus monkey, UniProt O95760 112-269 (human entry), biotin on the AviTag portion (BirA) in the SPR of Example 7; used without biotinylation in Example 10).
T6 chain: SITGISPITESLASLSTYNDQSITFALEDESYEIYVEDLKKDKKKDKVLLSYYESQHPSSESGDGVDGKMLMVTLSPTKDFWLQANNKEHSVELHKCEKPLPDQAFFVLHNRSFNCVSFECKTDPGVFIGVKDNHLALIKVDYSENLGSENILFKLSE
Nature of the assay: cell-based or functional assay.

Assay [5] deals with T4, recombinant human IL-33 protein …. The assay can be described thus: cell-based or functional assay.

Where no end group is shown, it is not given here.

B1: A10-1C04 (IgG) (antibody, V domains shown)
VH: EVQLLESGGGLVQPGGSLRLSCAASGFTFSDYYMNWVRQAPGKGLEWVSSISRYSSYIYYADSVKGRFTISRDNSKNTLYLQMNSLRAEDTAVYYCARDIGGMDVWGQGTLVTVSS
VL: QSVLTQPPSASGTPGQRVTISCTGSSSNIGAVYDVHWYQQLPGTAPKLLIYRNNQRPSGVPDRFSGSKSGTSASLAISGLRSEDEADYYCQTYDSSRWVFGGGTKLTVL
notes: tested as neutral-purified and as alkaline-purified antibody; also called V1; IGN1
Consider B1, for which the dissociation constant (Kd) (as a rule, the concentration at which binding is half-saturated) came out at 386 nM with LEDESYEIYV; 2070 nM with EDESYEIYV; 9 nM in assay [1]; 0.1 nM in assay [2]; 0.18 nM in assay [3]. Also, the “IC50 of inhibition of IL-6 production by HUVEC (alkaline-purified IgG, cynomolgus monkey IL-33 100 ng/mL, not biotinylated)” value in assay [4] amounted to 0.43 µg/mL. The “IC50 of inhibition of IL-6 production by HUVEC (alkaline-purified IgG, human IL-33 100 ng/mL)” value in assay [5] worked out at 0.35 µg/mL. Besides, the “inhibition of IFN-γ production by human PBMC (alkaline-purified IgG 10 ug/mL, IL-33 10 ng/mL, IL-12 10 ng/mL)” value in assay [5] was 96.9%. Also, in assay [5], the “inhibition of production of IL-5 and IL-13 by KU-812 cells (alkaline-purified IgG 1 ug/mL; IL-33 3 ng/mL with IL-3 and C5a)” value is not below 50%. In addition, the “percentage of inhibition (%) of IL-6 production by HUVEC (neutral-purified IgG 1 ug/mL, IL-33 100 ng/mL)” value in assay [5] was found to be 67%.

(Values after patent publication US20240002495A1 (MITSUBISHI TANABE PHARMA, published 2024).)
